As a reminder, the EC50 is the midpoint of the concentration-response curve. A low value points to greater potency. Usually Kd stands for the constant that tells how readily two partners part at equilibrium. Low values mean higher affinity, high ones lower affinity.

One test deals with T1, HER3 (human, UniProt P21860 20-643, limits assumed).
T1 construct: also called ErbB3
In words: ELISA, coated HER3, antibody in 3-fold dilutions. In general terms: In an ELISA, binding on a coated surface is turned into a signal by an enzyme label.

Test [1] has as its target T2, hEGFR/ECD-his (自制的C-末端具有his标签的人EGFR胞外域蛋白全长) (human, UniProt P00533 25-645).
T2 construct: extracellular domain; Home-made antigen; also called hEGFR/EDC-his; hEGFR/EGFR-his; not shown: C-terminal his tag
The test is described as follows: ELISA, coated hEGFR/ECD-his 1 ug/mL, anti-hIgG Fc-HRP.

For test [2], the target named is T2, hEGFR/ECD-his …. The test is described as follows: BLI (ForteBio Qke), antibody on Protein A probes, hEGFR in solution from 20 ug/mL in 1:2 dilutions. (In general: BLI is a label-free optical method that tracks binding on a fibre tip over time.)
Another test deals with T3, HER4 (human, UniProt Q15303 26-649, limits assumed).
T3 construct: also called ErbB4
T3 sequence (looked up): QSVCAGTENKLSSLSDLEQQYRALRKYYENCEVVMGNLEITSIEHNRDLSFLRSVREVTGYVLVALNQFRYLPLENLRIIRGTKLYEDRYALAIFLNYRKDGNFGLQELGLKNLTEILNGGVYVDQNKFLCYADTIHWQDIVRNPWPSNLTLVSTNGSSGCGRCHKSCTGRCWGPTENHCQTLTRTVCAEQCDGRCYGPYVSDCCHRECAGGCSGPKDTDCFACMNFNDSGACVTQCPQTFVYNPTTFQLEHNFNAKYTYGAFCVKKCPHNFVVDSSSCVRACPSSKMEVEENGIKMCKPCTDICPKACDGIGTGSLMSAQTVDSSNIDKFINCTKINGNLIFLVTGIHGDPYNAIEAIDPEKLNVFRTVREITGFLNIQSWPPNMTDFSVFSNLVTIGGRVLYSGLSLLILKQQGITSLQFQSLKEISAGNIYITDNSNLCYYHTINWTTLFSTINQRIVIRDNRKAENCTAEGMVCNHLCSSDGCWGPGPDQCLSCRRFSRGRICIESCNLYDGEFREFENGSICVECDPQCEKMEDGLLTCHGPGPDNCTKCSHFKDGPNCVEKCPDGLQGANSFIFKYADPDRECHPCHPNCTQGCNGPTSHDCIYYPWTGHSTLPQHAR
In words: ELISA, coated HER4, antibody in 3-fold dilutions.

A further test addresses T4, HER2 (human, UniProt P04626 23-652, limits assumed).
T4 construct: also called ErbB2
In words: ELISA, coated HER2, antibody in 3-fold dilutions.

T1 sequence (P21860 20-643 limits assumed): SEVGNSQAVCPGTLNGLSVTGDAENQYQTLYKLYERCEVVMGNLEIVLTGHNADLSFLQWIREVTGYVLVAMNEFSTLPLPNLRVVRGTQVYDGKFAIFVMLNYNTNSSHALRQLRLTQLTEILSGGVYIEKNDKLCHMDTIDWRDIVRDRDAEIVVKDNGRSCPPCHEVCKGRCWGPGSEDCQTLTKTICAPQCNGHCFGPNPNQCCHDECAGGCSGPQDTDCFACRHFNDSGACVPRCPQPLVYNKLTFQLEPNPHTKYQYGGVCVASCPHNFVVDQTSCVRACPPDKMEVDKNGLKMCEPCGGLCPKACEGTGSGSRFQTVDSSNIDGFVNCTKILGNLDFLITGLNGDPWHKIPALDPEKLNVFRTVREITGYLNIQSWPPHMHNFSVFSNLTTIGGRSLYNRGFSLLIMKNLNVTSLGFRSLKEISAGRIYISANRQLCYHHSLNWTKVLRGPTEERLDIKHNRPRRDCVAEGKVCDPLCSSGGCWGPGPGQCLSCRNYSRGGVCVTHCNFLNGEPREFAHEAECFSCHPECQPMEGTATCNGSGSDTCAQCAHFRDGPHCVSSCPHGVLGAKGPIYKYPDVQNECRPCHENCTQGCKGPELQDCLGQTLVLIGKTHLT

B1: mouse anibody1129 (mAb1129) (antibody, V domains shown)
VH: DVMLVESGGGLVKPGGSLKLSCAASGFAFSNYDMSWVRQTPEKRLEWVAYISSGGDITYYLDTVKGRFTISRDNAKNTLYLQMSSLKSEDTAMYYCARSHYGYYGDTMDYWGQGTSVTVSS
VL: DVVMTQTPLSLPVSLGDQASISCRSSQSLVHSNGNTYLHWYLQKPGQSPKLLIYKVSNRFSGVPDRFSGSGSGTDFTLKISRVEAEDLGVYFCSQSTHVPPTFGGGTKLEIK
notes: also called 抗EGFR抗体mAb1129; 小鼠抗EGFR抗体; not shown: human kappa light chain constant region
B1: the binding result in the test with HER3, with HER4 and with HER2 was “no binding (tested: 起始浓度为2μg/mL)” in each case. Also, the EC50 in test [1] was ~0.0199 µg/mL. In addition, the Kd in test [2] was ~2.03 nM.
